Literature values in publication PMC11969061.

Target: BTN3A IgV (Homo sapiens) (UniProt O00481)
Sequence of UniProt O00481 (O00481 30-139): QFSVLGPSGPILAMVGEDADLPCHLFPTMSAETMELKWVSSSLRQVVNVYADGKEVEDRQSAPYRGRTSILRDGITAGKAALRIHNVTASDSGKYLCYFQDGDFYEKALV

Kd: 600 µM
Substance: BTN2A1 IgV (from UniProt Q7KYR7)
